Laboratory results published in paper PMC4516985, “Transactivation of human osteoprotegerin promoter by GATA-3”.

Key:
GATA-3 [1] = molecular target: T1, GATA-3 (Homo sapiens, UniProt P23771 1-443); test: competition; excess unlabeled mutant did not compete with biotin-G3RE2; protein source conflict as above; LightShift EMSA Optimization & Control Kit (Thermo 20148) per manufacturer, 6% DNA retardation gel; buffer, salt, pH and temperature not stated; conditions: protein: commercial; label: none
T1 sequence (P23771 whole entry): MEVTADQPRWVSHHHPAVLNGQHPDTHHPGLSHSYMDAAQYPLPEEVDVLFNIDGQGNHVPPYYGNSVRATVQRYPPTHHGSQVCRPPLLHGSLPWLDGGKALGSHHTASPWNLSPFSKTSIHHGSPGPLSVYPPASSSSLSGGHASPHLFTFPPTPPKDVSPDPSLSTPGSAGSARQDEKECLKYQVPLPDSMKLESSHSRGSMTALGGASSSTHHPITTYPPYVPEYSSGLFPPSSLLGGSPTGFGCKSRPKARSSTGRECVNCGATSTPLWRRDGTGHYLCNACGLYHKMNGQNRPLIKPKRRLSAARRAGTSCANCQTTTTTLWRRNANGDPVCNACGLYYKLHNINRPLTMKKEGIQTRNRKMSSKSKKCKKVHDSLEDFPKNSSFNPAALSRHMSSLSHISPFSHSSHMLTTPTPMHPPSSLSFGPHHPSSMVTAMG

GATA-3 [2] = molecular target: T1, GATA-3; test: competition; excess unlabeled mutant did not compete with biotin-G3RE1; protein source conflict as above; LightShift EMSA Optimization & Control Kit (Thermo 20148) per manufacturer, 6% DNA retardation gel; buffer, salt, pH and temperature not stated; conditions: protein: commercial; label: none

| Binder | binding result (GATA-3 [1]) | binding result (GATA-3 [2]) |
| --- | --- | --- |
| mutant G3RE2 probe (dsDNA) DNA 1: TAACTACCCCAGAGTTGAAGGAGTGA DNA 2: TCACTCCTTCAACTCTGGGGTAGTTA | no binding |  |
| mutant G3RE1 probe (dsDNA) DNA 1: TAGGAAGCTCCCATGGCAATAGCCCT DNA 2: AGGGCTATTGCCATGGGAGCTTCCTA |  | no binding |
